Test results: article PMC3295402 (Journal of Experimental Botany, 2012)
Substitutions are numbered along the chain they refer to.

B1: wild type (wt) cryptogein (ligand)
chain: GTACTATQQTAAYKTLVSILSDASFNQCSTDSGYSMLTAKALPTTAQYKLMCASTACNTMIKKIVTLNPPNCDLTVPTSGLVLNVYSYANGFSNKCSSL
modifications: fluorescein isothiocyanate (FITC) label, site not stated
B2: cryptogein Val84Phe mutant (ligand)
chain: B1 chain with V65F
modifications: fluorescein isothiocyanate (FITC) label, site not stated
B3: cryptogein Leu41Phe mutant (ligand)
chain: B1 chain with L42F
modifications: fluorescein isothiocyanate (FITC) label, site not stated
B4: cryptogein Leu41Phe/Val84Phe double mutant (ligand)
chain: B1 chain with L42F, V85F
modifications: fluorescein isothiocyanate (FITC) label, site not stated

Legend:
[1] = target: cryptogein (wt cryptogein, Cry) (Phytophthora cryptogea, UniProt P15570); assay: biochemical
[2] = target: cryptogein (wt cryptogein, Cry) (Phytophthora cryptogea, UniProt P15570, L61F); assay: biochemical
[3] = target: high-affinity binding site on the tobacco plasma membrane (tobacco (endogenous in Xanthi cell suspension)); assay: filter binding of FITC-labelled ligand to plasma membrane preparations

Molecule | amount of bound molecules at 10 nM (pmol mg^−1 plasma membrane proteins) [3] | amount of bound molecules at 30 nM (pmol mg^−1 plasma membrane proteins) [3] | other results
CC(C)[C@@H](C)/C=C/[C@@H](C)[C@H]1CC[C@H]2C3=CC=C4C[C@@H](O)CC[C@]4(C)C3=CC[C@]12C [DHE] | – | – | Kd [1]: 560 ± 40 nM; Kd [2]: 850 ± 50 nM
B1 | 57.4 | – | –
B2 | 55.3 | – | –
B3 | – | 14.4 | –
B4 | – | 16.9 | –
